Measurements taken from patent US20250109199A1.
pKd: −log10 of the molar value.

Experiments:
[1] = target: EEEV virus-like particles (VLPs), strain PE-6 (Eastern equine encephalitis virus, strain PE-6)
[2] = target: EEEV virus-like particles (VLPs), strain FL93-939, wild type (Eastern equine encephalitis virus, strain FL93-939)

Row | Substance | pKd [1] | fold higher affinity than LA(2-3) [1] [fold] | pKd [2]
1 | monovalent VLDLR LA(1-2) (from UniProt P98155 31-110) (receptor) | 6.00 | 10 | 
2 | monovalent VLDLR LA(1-3) (from UniProt P98155 31-151) (receptor) | 7.47 |  | 
3 | monovalent VLDLR LA(1-4) (from UniProt P98155 28-190) (receptor) | 7.43 |  | 
4 | monovalent VLDLR LA(1-5) (from UniProt P98155 28-231) (receptor) | 7.84 |  | 
5 | monovalent VLDLR LA(1-6) (from UniProt P98155 28-275) (receptor) | 7.82 |  | 7.30
6 | monovalent VLDLR LA(2-3) (from UniProt P98155 70-151) (receptor) | 4.85 |  | 
